# Reference: paper PMC8299219 (Cell, 2021)
# Biological target: SARS-CoV-2 S ectodomain trimer, prefusion-stabilized, 2P variant (Wrapp et al., 2020) (SARS-CoV-2, Wuhan-Hu-1, UniProt P0DTC2, stabilised)
row,Binder,binding result
1,"C12E7 (antibody, V domains shown) VH: QVQLVESGGGVVQPGRSLRLSCAASGFTFSSYGMHWVRQAPGKGLEWVAVISYDGSNKYYADSVKGRFTISRDNSKNTLYLQMNSLRAEDTAVYYCAKSGYSYAYPMVYFDYWGQGTLVTVSS VL: SYELTQPPSVSVAPGKTARITCGGNNIGSKSVHWYQQKPGQAPVLVVYDDSDRPSGIPERFSGSNSGNTATLTISRVEAGDEADYYCQVWDSSSDHPGVFGGGTKLTVL",binds
2,"C93D1 (antibody, V domains shown) VH: QVQLVESGGGVVQPGRSLRLSCAASGFTFSNYGMHWVRQAPGKGLEWVAVISYDGSNKYYADSVKGRFTISRDNSKNTLYLQMNSLRAEDTAVYYCAKGSYFHSNYWDYFDYWGQGTLVTVSS VL: not shown",binds
3,"C12B10 (antibody, V domains shown) VH: EVQLVESGGGLVQPGGSLRLSCAASGFTFSSYAMHWVRQAPGKGLEYVSAINSYGGSTYYANSVKGRFTISRDNSKNTLYLQMGSLRAEDMAVYYCAREVQGVATMDGAFDIWGQGTMVTVSS VL: SYELTQPPSVSVAPGKTARITCGGNNIGSKSVHWYQQKPGQAPVLVIYYDSDRPSGIPERFSGSNSGNTATLTISRVEAGDEADYYCQVWDSSSDPHWVFGGGTKLTVL",binds
4,"C12D1 (antibody, V domains shown) VH: EVQLVQSGAEVIKPGESLKISCKGSGYSFTSYWIGWVRQMPGKGLEWMGIIYPGDSDTRYSPSFQGQVTISADKSISTAYLQWSSLKASDTAIYYCARLGGSVTNIEFIDYWGQGTLVTVSS VL: not shown",binds
5,"C81F5 (antibody, V domains shown) VH: QVQLVESGGGVVQPGRSLRLSCAASGFTFSNSGMHWVRQAPGKGLEWVAVISYDGSHKYYADSVKGRFTISRDNSKNTLYLQMNTLRAEDTAVYYCAKEESAVAGTGVPYYYYYYMDVWGKGTTVTVSS VL: not shown",binds
6,"C12D5 (antibody, V domains shown) VH: QVQLVESGGGVVQPGRSLRLSCAASGFTFSSYVMHWVRQAPGKGLEWVAVISYDGSNKYYADSVKGRFTISRDNSKNTLYLQMNSLRAEDTAVYYCARDPGARRDGYVSLGGSYDWFDPWGQGTLVTVSS VL: QSVLTQPPSVSGAPGQRVTISCTGTSSNIGAGYDVHWYQQLPGTAPKLLIYGNSNRPSGVPDRFSGSKSGTSASLAITGLQAEDEADYYCQSYDSSLSGWVFGGGTKLTVL",binds
7,"C81G11 (antibody, V domains shown) VH: QVQLQESGPGLVKPSGTLSLTCAVSGGSISSSNWWSWVRQPPGKGLEWIGEIYHSGNTNYNPSLTSRVTLSVDKSKNQFSLKLSSVTAADTALYYCAGRFCGSTSCPNWFDPWGQGTLVTVSS VL: QSALTQPASVSGSPGQSITISCTGTSSDVGSYNLVSWYQQHPGKAPKLMIYEGSKRPSGVSNRFSGSKSGNTASLTISGLQAEDEADYYCCSYAGSSTWVFGGGTKLTVL",binds
8,"C163E5 (antibody, V domains shown) VH: QVQLQESGPGLVKPSETLSLTCTVSGASIRSFHWSWIRQPAGKGLEWIGRLLTTGSTNYNRSLKSRVTMSVDTSKNQFSLKLSSVTAADTAVYYCSRGTEMNMEVPGVVTGSEFFDYWGQGTLVTVSS VL: EIVLTQSPATLSLSPGERATLSCRASQSVSSYLAWYQRKPGQAPRLLIYDASNRATGIPARFSGSGSGTDFTLTISSLEPEDFAVYYCQQRRNWPETFGQGTKLEIK",binds
9,"C18C10 (antibody, V domains shown) VH: EVQLVESGGGLVQPGGSLRLSCAASGFTFSNYAISWVRQAPGKGLEWVSLISGSGGSTYYADSVKGRFTISRDNSKNTLYLQMNSLRAEDTAVYYCATTNIPPFSGYYLDAFDIWGQGTMVTVSS VL: not shown",binds
10,"C29C2 (antibody, V domains shown) VH: EVQLVQSGAEVKKPGESLKISCKGSGYSFTSYWIGWVRQMPGKGLEWMGIIYPGDSDTRYSPSFQGQVTISADKSISTAYLQWSSLKASDTAMYYCARLPVSTHPLYYYFGMDVWGQGTTVTVSS VL: not shown",binds
11,"G32Q2 (antibody, V domains shown) VH: EVQLLESGGGLVQPGGSLRLSCAASGFTFSNYAMSWVRQAPGKGLEWVSAISGSGSTTYYADSVKGRFTISRDNSKNTLFLQVNSLRAEDTAVYYCAKGERIIMMVVLTLFDYWGQGTLVTVSS VL: QSVLTQPPSVSAAPGQKVTISCPGSSSNIGKNYVSWYQQLPGTAPKLLIYDNNKRPSGIPDRFTGSKSGTSATLDITGLQTGDEADYYCGTWDSSLSAGWVFGGGTKLTVL",binds
12,"C81G9 (antibody, V domains shown) VH: EVQLVESGGGLVQPGGSLRLSCAASGFTFSSYSVNWVRQAPGKGLEWVSYISSSSLTIYYADSVKGRFIISRDNAKNSLYLQMNSLRDEDTAVYHCAREGPSSSWFSYYYMDVWGKGTTVTVSS VL: QSALTQPASVSGSPGQSITISCTGTSSDVGSYNLVSWYQQHPGKAPKLMIYEGSKRPSGVSNRFSGSKSGNTASLTISGLQAEDEAEYYCCSYAGSSTSPYVFGTGTKVTAL",binds
13,"G32B1 (antibody, V domains shown) VH: QVQLVESGGGVVQPGRSLRLSCAASGFTFSSYGMHWVRQAPGKGLEWVAVISYDGSNKYYADSVKGRFTISRDNSKNTLYLQMNSLRAEDTAVYYCAKVVAPYYYYYYGMDVWGQGTTVTVSS VL: QSALTQPASVSGSPGQSITISCTGTSSDVGGYNYVSWYQQHPGKAPKLMIYEVSNRPSGVSNRFSGSKSGNTASLTISGLQAEDEADYYCSSYTSSSTSWVFGGGTKLTVL",binds
14,"C12C10 (antibody, V domains shown) VH: not shown VL: QSALTQPASVSGSPGQSITISCTGTSSDVGGYNYVSWYQQHPGKAPKLMIYDVSYRPSGVSNRFSGSKSGNTASLTISGLQAEDEADYYCSSYTSSSILGVFGGGTKLTVL",binds
15,"G32Q3 (antibody, V domains shown) VH: QVQLVQSGTEVKKPGASVKVSCKASGYTFPNYGITWVRQAPGQGLEWVGWISAYNGNTNYAQKLQGRVTMTTDTSTNTAYMELRSLRSDDTAVYYCARSIAVAGTTAEFDYWGQGTLVTVSS VL: not shown",binds
16,"C63C8 (antibody, V domains shown) VH: EVQLVESGGGLVQPGGSLRLSCAASGFTFSSYWMSWVRQAPGKGLEWVANIKQDGSEKYYVDSVKGRFTMSRDNAKNSLYLQMNSLRAEDTAVYYCASLRWLQADFEYWGQGTLVTVSS VL: NFMLTQPHSVSESPGKTVTISCTRSSGSIASNYVQWYQQRPGSSPTTVIYEDNQRPSGVPDRFSGSIDSSSNSASLTISGLKTEDEADYYCQSYDSTNHVFGTGTKVTVL",binds
17,"C12C6 (antibody, V domains shown) VH: QVQLVESGGGVVQPGRSLRLSCAASGFTFSSYAMHWVRQAPGKGLEWVAVISYDGSNKHYADSVKGRFTISRDNSKNTLYLQMNSLRAEDTAVYYCARDPQYCSSTSCSMGVGWFDPWGQGTLVTVSS VL: SYELTQPPSVSVAPGKTARITCGGNNIGSKSVHWYQQKPGQAPVLVIYYDSDRPSGIPERFSGSNSGNTATLTISRVEAGDEADYYCQVWDSSSDHAYWVFGGGTKLTVL",binds
18,"C12E9 (antibody, V domains shown) VH: QVQLVQSGAEVKKPGSSVKVSCKASGGTFSSYAISWVRQAPGQGLEWMGGIIPIFGTASYAQKFQGRVTITADESTSTAYMELSSLRSEDTAVYYCARGSVGLGGDCYQCGYYFDYWGQGTLVTVSS VL: not shown",binds
